Laboratory results: article PMC5384083

B1: T7 tagged FoxM1 wild type (WT) [not stated] / Retinoblastoma protein (Rb), endogenous [human (endogenous in MCF7 and MDA-MB-453)] (parent)
chain 1: MKTSPRRPLILKRRRLPLPVQNAPSETSEEEPKRSPAQQESNQAEASKEVAESNSCKFPAGIKIINHPTMPNTQVVAIPNNANIHSIITALTAKGKESGSSGPNKFILISCGGAPTQPPGLRPQTQTSYDAKRTEVTLETLGPKPAARDVNLPRPPGALCEQKRETCADGEAAGCTINNSLSNIQWLRKMSSDGLGSRSIKQEMEEKENCHLEQRQVKVEEPSRPSASWQNSVSERPPYSYMAMIQFAINSTERKRMTLKDIYTWIEDHFPYFKHIAKPGWKNSIRHNLSLHDMFVRETSANGKVSFWTIHPSANRYLTLDQVFKQQKRPNPELRRNMTIKTELPLGARRKMKPLLPRVSSYLVPIQFPVNQSLVLQPSVKVPLPLAASLMSSELARHSKRVRIAPKVLLAEEGIAPLSSAGPGKEEKLLFGEGFSPLLPVQTIKEEEIQPGEEMPHLARPIKVESPPLEEWPSPAPSFKEESSHSWEDSSQSPTPRPKKSYSGLRSPTRCVSEMLVIQHRERRERSRSRRKQHLLPPCVDEPELLFSEGPSTSRWAAELPFPADSSDPASQLSYSQEVGGPFKTPIKETLPISSTPSKSVLPRTPESWRLTPPAKVGGLDFSPVQTSQGASDPLPDPLGLMDLSTTPLQSAPPLESPQRLLSSEPLDLISVPFGNSSPSDIDVPKPGSPEPQVSGLAANRSLTEGLVLDTMNDSLSKILLDISFPGLDEDPLGPDNINWSQFIPELQ
chain 2: MPPKTPRKTAATAAAAAAEPPAPPPPPPPEEDPEQDSGPEDLPLVRLEFEETEEPDFTALCQKLKIPDHVRERAWLTWEKVSSVDGVLGGYIQKKKELWGICIFIAAVDLDEMSFTFTELQKNIEISVHKFFNLLKEIDTSTKVDNAMSRLLKKYDVLFALFSKLERTCELIYLTQPSSSISTEINSALVLKVSWITFLLAKGEVLQMEDDLVISFQLMLCVLDYFIKLSPPMLLKEPYKTAVIPINGSPRTPRRGQNRSARIAKQLENDTRIIEVLCKEHECNIDEVKNVYFKNFIPFMNSLGLVTSNGLPEVENLSKRYEEIYLKNKDLDARLFLDHDKTLQTDSIDSFETQRTPRKSNLDEEVNVIPPHTPVRTVMNTIQQLMMILNSASDQPSENLISYFNNCTVNPKESILKRVKDIGYIFKEKFAKAVGQGCVEIGSQRYKLGVRLYYRVMESMLKSEEERLSIQNFSKLLNDNIFHMSLLACALEVVMATYSRSTSQNLDSGTDLSFPWILNVLNLKAFDFYKVIESFIKAEGNLTREMIKHLERCEHRIMESLAWLSDSPLFDLIKQSKDREGPTDHLESACPLNLPLQNNHTAADMYLSPVRSPKKKGSTTRVNSTANAETQATSAFQTQKPLKSTSLSLFYKKVYRLAYLRLNTLCERLLSEHPELEHIIWTLFQHTLQNEYELMRDRHLDQIMMCSMYGICKVKNIDLKFKIIVTAYKDLPHAVQETFKRVLIKEEEYDSIIVFYNSVFMQRLKTNILQYASTRPPTLSPIPHIPRSPYKFPSSPLRIPGGNIYISPLKSPYKISEGLPTPTKMTPRSRILVSIGESFGTSEKFQKINQMVCNSDRVLKRSAEGSNPPKPLKKLRFDIEGSDEADGSKHLPGESKFQQKLAEMTSTRTRMQKQKMNDSMDTSNKEEK
B2: T7 tagged FoxM1 wild type (WT) [not stated] / DNMT3b, endogenous [human (endogenous in MCF7 and MDA-MB-453)] (parent)
chain 1: B1 chain 1
chain 2: not shown

Variants of: B1
Experiment: co-immunoprecipitation (IP T7, western blot Rb), band intensity given
Conditions: with Retinoblastoma protein (Rb), MDA-MB-453 cells, cell lysates (800 ug)

Q: chain 1 S715D S724D was tested. Which response did it give?
A: 0.09

Q: For chain 1 T596A, which response is on record?
A: 22.8

Variants of: B2
Experiment: co-immunoprecipitation (IP T7, western blot DNMT3b), band intensity given
Conditions: with DNMT3b, MDA-MB-453 cells

Q: With chain 1 S715D S724D as the variant, how does the response read?
A: 10

Q: Which response does the source give for chain 1 T596A here?
A: 132
